The results in this text go back to PMC5797828 (Cancer Science, 2017).

The target in the assay is T1, Human γ-catenin, MYC/DDK-Tag (recombinant) (human, UniProt P14923 1-745).
T1 sequence (looked up): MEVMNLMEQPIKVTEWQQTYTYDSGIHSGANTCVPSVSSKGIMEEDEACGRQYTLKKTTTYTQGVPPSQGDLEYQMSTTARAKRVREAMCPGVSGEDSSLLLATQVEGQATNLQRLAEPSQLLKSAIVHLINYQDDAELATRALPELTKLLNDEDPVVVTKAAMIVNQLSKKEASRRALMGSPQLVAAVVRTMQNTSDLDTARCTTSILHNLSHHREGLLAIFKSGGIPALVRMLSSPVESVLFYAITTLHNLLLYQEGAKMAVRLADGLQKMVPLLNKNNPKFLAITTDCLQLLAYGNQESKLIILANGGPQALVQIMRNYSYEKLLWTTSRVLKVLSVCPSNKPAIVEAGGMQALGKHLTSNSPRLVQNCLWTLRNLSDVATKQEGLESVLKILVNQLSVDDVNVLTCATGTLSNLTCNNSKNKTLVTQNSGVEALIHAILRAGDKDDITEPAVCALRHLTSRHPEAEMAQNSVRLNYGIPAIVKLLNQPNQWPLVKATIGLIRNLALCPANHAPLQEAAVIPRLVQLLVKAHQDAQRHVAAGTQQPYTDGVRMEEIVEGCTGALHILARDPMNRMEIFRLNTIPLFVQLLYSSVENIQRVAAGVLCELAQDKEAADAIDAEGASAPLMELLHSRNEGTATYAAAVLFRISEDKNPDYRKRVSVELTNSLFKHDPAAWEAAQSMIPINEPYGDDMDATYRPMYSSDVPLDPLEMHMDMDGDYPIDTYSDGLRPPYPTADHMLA
Kind of assay: SPR.

B1: Human PRDM14, GST-Tag at N-terminus (GST-PRDM14) (natural protein, UniProt Q9GZV8 1-571, looked up)
chain: MALPRPSEAVPQDKVCYPPESSPQNLAAYYTPFPSYGHYRNSLATVEEDFQPFRQLEAAASAAPAMPPFPFRMAPPLLSPGLGLQREPLYDLPWYSKLPPWYPIPHVPREVPPFLSSSHEYAGASSEDLGHQIIGGDNESGPCCGPDTLIPPPPADASLLPEGLRTSQLLPCSPSKQSEDGPKPSNQEGKSPARFQFTEEDLHFVLYGVTPSLEHPASLHHAISGLLVPPDSSGSDSLPQTLDKDSLQLPEGLCLMQTVFGEVPHFGVFCSSFIAKGVRFGPFQGKVVNASEVKTYGDNSVMWEIFEDGHLSHFIDGKGGTGNWMSYVNCARFPKEQNLVAVQCQGHIFYESCKEIHQNQELLVWYGDCYEKFLDIPVSLQVTEPGKQPSGPSEESAEGYRCERCGKVFTYKYYRDKHLKYTPCVDKGDRKFPCSLCKRSFEKRDRLRIHILHVHEKHRPHKCSTCGKCFSQSSSLNKHMRVHSGDRPYQCVYCTKRFTASSILRTHIRQHSGEKPFKCKYCGKSFASHAAHDSHVRRSHKEDDGCSCSICGKIFSDQETFYSHMKFHEDY
Consider B1, for which the binding result is given as “binds”.
